From patent publication US20220401560A1, “PEPTIDE ENCAPSULATING FERRITIN” (Ajinomoto Co., Inc., priority 2019, published 2022)

Biological target: transferrin receptor TfR (human) (UniProt P02786)
Assay: cell-based or functional assay

Sequence of FAM-SV40 encapsulating FTH (P02794 whole entry): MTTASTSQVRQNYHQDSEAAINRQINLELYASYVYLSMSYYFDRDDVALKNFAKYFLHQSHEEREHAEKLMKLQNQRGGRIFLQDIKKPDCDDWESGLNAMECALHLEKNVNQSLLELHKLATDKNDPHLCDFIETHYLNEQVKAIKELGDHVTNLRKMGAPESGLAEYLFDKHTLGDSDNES

**Q.** For “FAM-SV40 encapsulating FTH (from UniProt P02794 1-183)”, which concentration needed for fluorescence from 90% or more of HEK 293E cells (low TfR expression) by FACS is on record?
**A.** > 800 nM

**Q.** What about the percent of fluorescent SKBR 3 cells (high TfR expression) by FACS at 100 nM FAM-SV40 encapsulating FTH of the same substance?
**A.** > 90%

**Q.** And the ratio of fluorescent cells, SKBR 3 (high TfR) against HEK 293E (low TfR), at 100 nM?
**A.** 60 times
